Reference: the MegaScale stability set (Tsuboyama et al. 2023)

B1: EEHEE_rd4_0469 (parent)
chain: ITIHVNGVTYHFDNPEEAEKFAQKMAKTYQLKMEIHNGEFHME

Variants of: B1
Test: folding stability dG (cDNA display proteolysis); higher = more stable
Settings: PBS, room temperature

Variant	folding stability dG
ITIHVNGVTYHFDNPEEAEKFAQKMAKTYQLKMEIHNGESHME [F40S]	0.704 kcal/mol
ITIHVNGVTYHFDNPEEAEKFAQKMAKTYQLKMEIHNGEIHME [F40I]	1.6 kcal/mol
ITIHVNGVTYHFDNPEEAEKFAQKMAKTYQLKMEIHNGEKHME [F40K]	0.661 kcal/mol
ITIHVNGVTYHFDNPEEAEKFAQKMAKTYQLKMEIHNGEDHME [F40D]	0.578 kcal/mol
ITIHVNGVTYHFDNPEEAEKFAQKMAKTYQLKMEIHNGEWHME [F40W]	1.76 kcal/mol
ITIHVNGVTYHFDNPEEAEKFAQKMAKTYQLKMEIHNGEEHME [F40E]	0.603 kcal/mol
ITIHVNGVTYHFDNPEEAEKFAQKMAKTYQLKMEIHNGEVHME [F40V]	1.19 kcal/mol
ITIHVNGVTYHFDNPEEAEKFAQKMAKTYQLKMEIHNGELHME [F40L]	1.37 kcal/mol
ITIHVNGVTYHFDNPEEAEKFAQKMAKTYQLKMEIHNGEMHME [F40M]	1.23 kcal/mol
ITIHVNGVTYHFDNPEEAEKFAQKMAKTYQLKMEIHNGETHME [F40T]	0.801 kcal/mol
ITIHVNGVTYHFDNPEEAEKFAQKMAKTYQLKMEIHNGEGHME [F40G]	0.641 kcal/mol
ITIHVNGVTYHFDNPEEAEKFAQKMAKTYQLKMEIHNGENHME [F40N]	0.711 kcal/mol
ITIHVNGVTYHFDNPEEAEKFAQKMAKTYQLKMEIHNGECHME [F40C]	1.79 kcal/mol
ITIHVNGVTYHFDNPEEAEKFAQKMAKTYQLKMEIHNGEQHME [F40Q]	0.754 kcal/mol
ITIHVNGVTYHFDNPEEAEKFAQKMAKTYQLKMEIHNGEAHME [F40A]	0.744 kcal/mol
ITIHVNGVTYHFDNPEEAEKFAQKMAKTYQLKMEIHNGERHME [F40R]	0.623 kcal/mol
ITIHVNGVTYHFDNPEEAEKFAQKMAKTYQLKMEIHNGEHHME [F40H]	0.761 kcal/mol
ITIHVNGVTYHFDNPEEAEKFAQKMAKTYQLKMEIHNGEPHME [F40P]	0.69 kcal/mol
ITIHVNGVTYHFDNPEEAEKFAQKMAKTYQLKMEIHNGEYHME [F40Y]	1.31 kcal/mol
ITIHVNGVTYHFDNPEEAEKFAQKMAKTYQLKMEQHNGEFHME [I35Q]	0.822 kcal/mol
ITIHVNGVTYHFDNPEEAEKFAQKMAKTYQLKMENHNGEFHME [I35N]	0.687 kcal/mol
ITIHVNGVTYHFDNPEEAEKFAQKMAKTYQLKMEKHNGEFHME [I35K]	0.644 kcal/mol
ITIHVNGVTYHFDNPEEAEKFAQKMAKTYQLKMEHHNGEFHME [I35H]	0.724 kcal/mol
ITIHVNGVTYHFDNPEEAEKFAQKMAKTYQLKMEGHNGEFHME [I35G]	0.722 kcal/mol

Variant	folding stability dG
ITIHVNGVTYHFDNPEEAEKFAQKMAKTYQLKMESHNGEFHME [I35S]	0.764 kcal/mol
ITIHVNGVTYHFDNPEEAEKFAQKMAKTYQLKMEPHNGEFHME [I35P]	0.562 kcal/mol
ITIHVNGVTYHFDNPEEAEKFAQKMAKTYQLKMETHNGEFHME [I35T]	0.802 kcal/mol
ITIHVNGVTYHFDNPEEAEKFAQKMAKTYQLKMEWHNGEFHME [I35W]	1.06 kcal/mol
ITIHVNGVTYHFDNPEEAEKFAQKMAKTYQLKMEYHNGEFHME [I35Y]	1.24 kcal/mol
ITIHVNGVTYHFDNPEEAEKFAQKMAKTYQLKMELHNGEFHME [I35L]	1.07 kcal/mol
ITIHVNGVTYHFDNPEEAEKFAQKMAKTYQLKMERHNGEFHME [I35R]	0.522 kcal/mol
ITIHVNGVTYHFDNPEEAEKFAQKMAKTYQLKMEMHNGEFHME [I35M]	0.949 kcal/mol
ITIHVNGVTYHFDNPEEAEKFAQKMAKTYQLKMEVHNGEFHME [I35V]	1.03 kcal/mol
ITIHVNGVTYHFDNPEEAEKFAQKMAKTYQLKMEIHNGPFHME [E39P]	0.802 kcal/mol
ITIHVNGVTYHFDNPEEAEKFAQKMAKTYQLKMEIHNGAFHME [E39A]	1.02 kcal/mol
ITIHVNGVTYHFDNPEEAEKFAQKMAKTYQLKMEIHNGIFHME [E39I]	1.17 kcal/mol
ITIHVNGVTYHFDNPEEAEKFAQKMAKTYQLKMEIHNGLFHME [E39L]	0.728 kcal/mol
ITIHVNGVTYHFDNPEEAEKFAQKMAKTYQLKMEIHNGRFHME [E39R]	0.762 kcal/mol
ITIHVNGVTYHFDNPEEAEKFAQKMAKTYQLKMEIHNGTFHME [E39T]	0.836 kcal/mol
ITIHVNGVTYHFDNPEEAEKFAQKMAKTYQLKMEIHNGGFHME [E39G]	0.755 kcal/mol
ITIHVNGVTYHFDNPEEAEKFAQKMAKTYQLKMEIHNGYFHME [E39Y]	0.934 kcal/mol
ITIHVNGVTYHFDNPEEAEKFAQKMAKTYQLKMEIHNGHFHME [E39H]	1.16 kcal/mol
ITIHVNGVTYHFDNPEEAEKFAQKMAKTYQLKMEIHNGKFHME [E39K]	0.828 kcal/mol
ITIHVNGVTYHFDNPEEAEKFAQKMAKTYQLKMEIHNGVFHME [E39V]	1.07 kcal/mol
ITIHVNGVTYHFDNPEEAEKFAQKMAKTYQLKMEIHNGSFHME [E39S]	0.882 kcal/mol
ITIHVNGVTYHFDNPEEAEKFAQKMAKTYQLKMEIHNGFFHME [E39F]	0.886 kcal/mol
ITIHVNGVTYHFDNPEEAEKFAQKMAKTYQLKMEIHNGNFHME [E39N]	0.81 kcal/mol
ITIHVNGVTYHFDNPEEAEKFAQKMAKTYQLKMEIHNGDFHME [E39D]	0.969 kcal/mol

Variant	folding stability dG
ITIHVNGVTYHFDNPEEAEKFAQKMAKTYQLKMEIHNGWFHME [E39W]	0.978 kcal/mol
ITIHVNGVTYHFDNPEEAEKFAQKMAKTYQLKMEIHNGCFHME [E39C]	1.69 kcal/mol
ITIHVNGVTYHFDNPEEAEKFAQKMAKTYQLKMEIHNGQFHME [E39Q]	1.11 kcal/mol
ITIHVNGVTYHFDNPEEAEKFAQKMAKTYQLKMEIHNGMFHME [E39M]	0.924 kcal/mol
ITIHVNGVTYHFDNPEEAEKFAQKMAKTYQLKMEIRNGEFHME [H36R]	1.49 kcal/mol
ITIHVNGVTYHFDNPEEAEKFAQKMAKTYQLKMEIENGEFHME [H36E]	0.92 kcal/mol
ITIHVNGVTYHFDNPEEAEKFAQKMAKTYQLKMEIWNGEFHME [H36W]	1.24 kcal/mol
ITIHVNGVTYHFDNPEEAEKFAQKMAKTYQLKMEICNGEFHME [H36C]	1.69 kcal/mol
ITIHVNGVTYHFDNPEEAEKFAQKMAKTYQLKMEITNGEFHME [H36T]	0.926 kcal/mol
ITIHVNGVTYHFDNPEEAEKFAQKMAKTYQLKMEISNGEFHME [H36S]	0.832 kcal/mol
ITIHVNGVTYHFDNPEEAEKFAQKMAKTYQLKMEIPNGEFHME [H36P]	0.499 kcal/mol
ITIHVNGVTYHFDNPEEAEKFAQKMAKTYQLKMEIMNGEFHME [H36M]	0.945 kcal/mol
ITIHVNGVTYHFDNPEEAEKFAQKMAKTYQLKMEIFNGEFHME [H36F]	1.19 kcal/mol
ITIHVNGVTYHFDNPEEAEKFAQKMAKTYQLKMEIDNGEFHME [H36D]	0.709 kcal/mol
ITIHVNGVTYHFDNPEEAEKFAQKMAKTYQLKMEIQNGEFHME [H36Q]	0.93 kcal/mol
ITIHVNGVTYHFDNPEEAEKFAQKMAKTYQLKMEIGNGEFHME [H36G]	0.601 kcal/mol
ITIHVNGVTYHFDNPEEAEKFAQKMAKTYQLKMEIINGEFHME [H36I]	1.66 kcal/mol
ITIHVNGVTYHFDNPEEAEKFAQKMAKTYQLKMEILNGEFHME [H36L]	1.2 kcal/mol
ITIHVNGVTYHFDNPEEAEKFAQKMAKTYQLKMEIKNGEFHME [H36K]	1.28 kcal/mol
ITIHVNGVTYHFDNPEEAEKFAQKMAKTYQLKMEIVNGEFHME [H36V]	1.35 kcal/mol
ITIHVNGVTYHFDNPEEAEKFAQKMAKTYQLKMEINNGEFHME [H36N]	0.903 kcal/mol
ITIHVNGVTYHFDNPEEAEKFAQKMAKTYQLKMEIYNGEFHME [H36Y]	1.26 kcal/mol
ITIHVNGVTYHFDNPEEAEKFAQKMAKTYQLKMEIANGEFHME [H36A]	0.796 kcal/mol
ITIHVNGVTYHFDNPEEAEKFAQKMAKTYQLKMEIHIGEFHME [N37I]	1.1 kcal/mol

Variant	folding stability dG
ITIHVNGVTYHFDNPEEAEKFAQKMAKTYQLKMEIHLGEFHME [N37L]	1.09 kcal/mol
ITIHVNGVTYHFDNPEEAEKFAQKMAKTYQLKMEIHHGEFHME [N37H]	1.11 kcal/mol
ITIHVNGVTYHFDNPEEAEKFAQKMAKTYQLKMEIHFGEFHME [N37F]	1.19 kcal/mol
ITIHVNGVTYHFDNPEEAEKFAQKMAKTYQLKMEIHSGEFHME [N37S]	0.831 kcal/mol
ITIHVNGVTYHFDNPEEAEKFAQKMAKTYQLKMEIHYGEFHME [N37Y]	1.14 kcal/mol
ITIHVNGVTYHFDNPEEAEKFAQKMAKTYQLKMEIHGGEFHME [N37G]	1.02 kcal/mol
ITIHVNGVTYHFDNPEEAEKFAQKMAKTYQLKMEIHMGEFHME [N37M]	1.03 kcal/mol
ITIHVNGVTYHFDNPEEAEKFAQKMAKTYQLKMEIHDGEFHME [N37D]	1.02 kcal/mol
ITIHVNGVTYHFDNPEEAEKFAQKMAKTYQLKMEIHVGEFHME [N37V]	0.9 kcal/mol
ITIHVNGVTYHFDNPEEAEKFAQKMAKTYQLKMEIHRGEFHME [N37R]	0.716 kcal/mol
ITIHVNGVTYHFDNPEEAEKFAQKMAKTYQLKMEIHWGEFHME [N37W]	1.17 kcal/mol
ITIHVNGVTYHFDNPEEAEKFAQKMAKTYQLKMEIHKGEFHME [N37K]	0.81 kcal/mol
ITIHVNGVTYHFDNPEEAEKFAQKMAKTYQLKMEIHAGEFHME [N37A]	0.861 kcal/mol
ITIHVNGVTYHFDNPEEAEKFAQKMAKTYQLKMEIHEGEFHME [N37E]	0.831 kcal/mol
ITIHVNGVTYHFDNPEEAEKFAQKMAKTYQLKMEIHPGEFHME [N37P]	0.635 kcal/mol
ITIHVNGVTYHFDNPEEAEKFAQKMAKTYQLKMEIHTGEFHME [N37T]	0.767 kcal/mol
ITIHVNGVTYHFDNPEEAEKFAQKMAKTYQLKMEIHQGEFHME [N37Q]	0.88 kcal/mol
ITIHVNGVTYHFDNPEEAEKFAQKMAKTYQLKMEIHNSEFHME [G38S]	0.699 kcal/mol
ITIHVNGVTYHFDNPEEAEKFAQKMAKTYQLKMEIHNCEFHME [G38C]	2.21 kcal/mol
ITIHVNGVTYHFDNPEEAEKFAQKMAKTYQLKMEIHNREFHME [G38R]	0.609 kcal/mol
ITIHVNGVTYHFDNPEEAEKFAQKMAKTYQLKMEIHNWEFHME [G38W]	0.914 kcal/mol
ITIHVNGVTYHFDNPEEAEKFAQKMAKTYQLKMEIHNTEFHME [G38T]	0.717 kcal/mol
ITIHVNGVTYHFDNPEEAEKFAQKMAKTYQLKMEIHNLEFHME [G38L]	0.917 kcal/mol
ITIHVNGVTYHFDNPEEAEKFAQKMAKTYQLKMEIHNNEFHME [G38N]	0.855 kcal/mol

Variant	folding stability dG
ITIHVNGVTYHFDNPEEAEKFAQKMAKTYQLKMEIHNHEFHME [G38H]	0.885 kcal/mol
ITIHVNGVTYHFDNPEEAEKFAQKMAKTYQLKMEIHNKEFHME [G38K]	0.72 kcal/mol
ITIHVNGVTYHFDNPEEAEKFAQKMAKTYQLKMEIHNIEFHME [G38I]	0.832 kcal/mol
ITIHVNGVTYHFDNPEEAEKFAQKMAKTYQLKMEIHNMEFHME [G38M]	0.798 kcal/mol
ITIHVNGVTYHFDNPEEAEKFAQKMAKTYQLKMEIHNEEFHME [G38E]	0.77 kcal/mol
ITIHVNGVTYHFDNPEEAEKFAQKMAKTYQLKMEIHNPEFHME [G38P]	0.616 kcal/mol
ITIHVNGVTYHFDNPEEAEKFAQKMAKTYQLKMEIHNDEFHME [G38D]	0.717 kcal/mol
ITIHVNGVTYHFDNPEEAEKFAQKMAKTYQLKMEIHNAEFHME [G38A]	0.774 kcal/mol
ITIHVNGVTYHFDNPEEAEKFAQKMAKTYQLKMEIHNQEFHME [G38Q]	0.664 kcal/mol
ITIHVNGVTYHFDNPEEAEKFAQKMAKTYQLKMEIHNVEFHME [G38V]	0.627 kcal/mol
ITIHVNGVTYHFDNPEEAEKFAQKMAKTYQLKMEIHNFEFHME [G38F]	0.963 kcal/mol
ITIHVNGVTYHFDNPEEAEKFAQKMAKTYQLKMEIHNYEFHME [G38Y]	0.871 kcal/mol
ITIHVNGVTYHFDNPEEAEKFAQKMAKTYQLKMEIHNGEFEME [H41E]	0.697 kcal/mol
ITIHVNGVTYHFDNPEEAEKFAQKMAKTYQLKMEIHNGEFFME [H41F]	1.55 kcal/mol
ITIHVNGVTYHFDNPEEAEKFAQKMAKTYQLKMEIHNGEFGME [H41G]	0.628 kcal/mol
ITIHVNGVTYHFDNPEEAEKFAQKMAKTYQLKMEIHNGEFCME [H41C]	1.72 kcal/mol
ITIHVNGVTYHFDNPEEAEKFAQKMAKTYQLKMEIHNGEFLME [H41L]	0.929 kcal/mol
ITIHVNGVTYHFDNPEEAEKFAQKMAKTYQLKMEIHNGEFIME [H41I]	1.08 kcal/mol
ITIHVNGVTYHFDNPEEAEKFAQKMAKTYQLKMEIHNGEFAME [H41A]	0.623 kcal/mol
ITIHVNGVTYHFDNPEEAEKFAQKMAKTYQLKMEIHNGEFMME [H41M]	0.892 kcal/mol
ITIHVNGVTYHFDNPEEAEKFAQKMAKTYQLKMEIHNGEFKME [H41K]	0.756 kcal/mol
ITIHVNGVTYHFDNPEEAEKFAQKMAKTYQLKMEIHNGEFDME [H41D]	0.697 kcal/mol
